Consider five molecules from US20030235863A1 (published 2003).

T1: N-terminal hexahistidine-tagged FPR (human, UniProt P21462 1-350)
T1 construct: Construct limits and junction are not described; also called N-H6:FPR
T1 sequence: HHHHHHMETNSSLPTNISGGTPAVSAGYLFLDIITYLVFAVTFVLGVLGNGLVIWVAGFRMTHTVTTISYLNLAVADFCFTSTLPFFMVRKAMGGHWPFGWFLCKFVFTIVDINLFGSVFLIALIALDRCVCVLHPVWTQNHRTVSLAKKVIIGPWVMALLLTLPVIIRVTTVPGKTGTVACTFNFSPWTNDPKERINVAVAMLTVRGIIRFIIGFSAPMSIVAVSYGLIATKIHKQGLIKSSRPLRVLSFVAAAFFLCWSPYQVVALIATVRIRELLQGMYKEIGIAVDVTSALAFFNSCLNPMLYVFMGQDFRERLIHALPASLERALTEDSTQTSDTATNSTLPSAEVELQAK

T2: C-terminal hexahistidine-tagged FPR (human, UniProt P21462 1-350)
T2 construct: Construct limits and junction are not described; also called FPR:C-H6; C-H6:FPR
T2 sequence: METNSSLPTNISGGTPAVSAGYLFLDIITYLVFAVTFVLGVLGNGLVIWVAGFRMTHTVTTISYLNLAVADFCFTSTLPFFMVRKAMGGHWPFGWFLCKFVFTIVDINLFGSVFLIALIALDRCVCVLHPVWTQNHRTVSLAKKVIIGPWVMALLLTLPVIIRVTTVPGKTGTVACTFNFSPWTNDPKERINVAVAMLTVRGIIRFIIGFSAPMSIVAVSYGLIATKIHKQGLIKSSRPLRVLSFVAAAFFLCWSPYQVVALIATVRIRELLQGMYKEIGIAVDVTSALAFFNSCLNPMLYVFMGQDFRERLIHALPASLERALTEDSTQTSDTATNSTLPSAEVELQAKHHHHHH

B1: formyl peptide receptor (FPR), wild type, solubilized in dodecyl maltoside (receptor, human, UniProt P21462 1-350, looked up)
chain: METNSSLPTNISGGTPAVSAGYLFLDIITYLVFAVTFVLGVLGNGLVIWVAGFRMTHTVTTISYLNLAVADFCFTSTLPFFMVRKAMGGHWPFGWFLCKFVFTIVDINLFGSVFLIALIALDRCVCVLHPVWTQNHRTVSLAKKVIIGPWVMALLLTLPVIIRVTTVPGKTGTVACTFNFSPWTNDPKERINVAVAMLTVRGIIRFIIGFSAPMSIVAVSYGLIATKIHKQGLIKSSRPLRVLSFVAAAFFLCWSPYQVVALIATVRIRELLQGMYKEIGIAVDVTSALAFFNSCLNPMLYVFMGQDFRERLIHALPASLERALTEDSTQTSDTATNSTLPSAEVELQAK
notes: Crude detergent extract of membranes, not purified; the extract holds endogenous G protein subunits; also called wild type receptor; soluble FPR
B2: FPR-Giα2 fusion protein (receptor, human;rat)
chain: METNSSLPTNISGGTPAVSAGYLFLDIITYLVFAVTFVLGVLGNGLVIWVAGFRMTHTVTTISYLNLAVADFCFTSTLPFFMVRKAMGGHWPFGWFLCKFVFTIVDINLFGSVFLIALIALDRCVCVLHPVWTQNHRTVSLAKKVIIGPWVMALLLTLPVIIRVTTVPGKTGTVACTFNFSPWTNDPKERINVAVAMLTVRGIIRFIIGFSAPMSIVAVSYGLIATKIHKQGLIKSSRPLRVLSFVAAAFFLCWSPYQVVALIATVRIRELLQGMYKEIGIAVDVTSALAFFNSCLNPMLYVFMGQDFRERLIHALPASLERALTEDSTQTSDTATNSTLPSAEVELQAKAAAMGCTVSAEDKAAAERSKMIDKNLREDGEKAAREVKLLLLGAGESGKSTIVKQMKIIHEDGYSEEECRQYRAVVYSNTIQSIMAIVKAMGNLQIDFADPQRADDARQLFALSCAAEEQGMLPEDLSGVIRRLWADHGVQACFGRSREYQLNDSAAYYLNDLERIAQSDYIPTQQDVLRTRVKTTGIVETHFTFKDLHFKMFDVGGQRSERKKWIHCFEGVTAIIFCVALSAYDLVLAEDEEMNRMHESMKLFDSICNNKWFTDTSIILFLNKKDLFEEKITQSPLTICFPEYTGANKYDEAASYIQSKFEDLNKRKDTKEIYTHFTCATDTKNVQFVFDAVTDVIIKNNLKDCGLF
notes: Solubilized in dodecyl maltoside; also called FPR-αi2; FPR-Gαi2
B3: FPR-GFP fusion protein (receptor)
chain: METNSSLPTNISGGTPAVSAGYLFLDIITYLVFAVTFVLGVLGNGLVIWVAGFRMTHTVTTISYLNLAVADFCFTSTLPFFMVRKAMGGHWPFGWFLCKFVFTIVDINLFGSVFLIALIALDRCVCVLHPVWTQNHRTVSLAKKVIIGPWVMALLLTLPVIIRVTTVPGKTGTVACTFNFSPWTNDPKERINVAVAMLTVRGIIRFIIGFSAPMSIVAVSYGLIATKIHKQGLIKSSRPLRVLSFVAAAFFLCWSPYQVVALIATVRIRELLQGMYKEIGIAVDVTSALAFFNSCLNPMLYVFMGQDFRERLIHALPASLERALTEDSTQTSDTATNSTLPSAEVELQAKAAA
notes: Solubilized in dodecyl maltoside from membranes of transfected cells; also called R^F; fluorescent formyl peptide receptor; not shown: Clontech's EGFP (enhanced green fluorescent protein), from its first amino acid
B4: formyl-MLFK-FITC (peptide)
peptide: For-MLFK
modifications: also: FITC conjugated, site not given here
notes: everywhere else it is fMLFK-FITC; also called fMLFK-FITC; fluorescent ligand

For assay [1], the target named is G protein heterotrimer αi3β1H6γ2 on DCNi beads. The assay can be described thus: flow cytometry, L^FRG assembly on DCNi G beads.
Assay [2] shares this target. The assay can be described thus: flow cytometry, standard LRG assembly on nickel beads. Background: Flow cytometry measures light scatter and fluorescence of single cells or particles in a stream.
For another assay, the target named is T3, Gαi3β4γ2H6-FLAG.
T3 construct: Held on streptavidin-coated polystyrene beads through a biotinylated anti-FLAG antibody; also called αi3β4γ2-FLAG-H6
As to the kind of experiment: flow cytometry, LRG assembly on anti-FLAG beads.

Assay [3] deals with β1H6γ2 dimer on DCNi beads. The assay can be described thus: flow cytometry, βγ-coated DCNi beads, 1 µM GTP (bar 6) against GTPγS (bar 2).
Assay [4] deals with G protein heterotrimer αi3β1H6γ2 on DCNi beads. The assay can be described thus: flow cytometry, standard assembly (bar 3) against GTPγS (bar 4).
The target in assay [5] is T1, N-terminal hexahistidine-tagged FPR. The assay can be described thus: soluble receptor in detergent, dissociation of L^F.
The target in assay [6] is T2, C-terminal hexahistidine-tagged FPR. The assay can be described thus: soluble receptor in detergent, dissociation of L^F.
For assay [7] the target is unchanged. The assay can be described thus: receptor on DCNi beads, flow cytometry with rapid mixer, anti-FITC antibody added.
Assay [8] addresses T1, N-terminal hexahistidine-tagged FPR. As to the kind of experiment: receptor on DCNi beads, flow cytometry.
Assay [9] addresses T2, C-terminal hexahistidine-tagged FPR. As to the kind of experiment: receptor on DCNi beads, flow cytometry.
Assay [10] concerns the target B1. As to the kind of experiment: soluble receptor in detergent, spectrofluorimetry, dissociation of L^F. As to the method:
(§1) Spectrofluorimetric Analysis of Soluble Complexes. Fluorescence was measured with an SLM 8000 spectrofluorimeter (SLM Instruments, Inc.) using the photon counting mode. The sample holder was fitted with a cylindrical cuvette adapter, which allowed the use of 200 μl samples in 7mm ×45 mm cylindrical cuvettes (Sienco; Wheat Ridge, Colo.), stirred with 2×5 mm stir bars (Bel-Art). Excitation was at 490 nm, and stray light was reduced with a 490+/−10 nm filter (Corion; now part of Spectra-Physics, Franklin, Mass.). Emission was monitored using a 520+/−10 nm filter (Corion) and a 500 nm long-pass filter (Kopp; Pittsburg, Pa.). Additions to samples during kinetic measurements were made through an injection port on the top of the sample holder with 10 μl glass syringes (Hamilton; Reno, Nev.). […] For accurate analysis, and for kinetic dissociation analysis, the percent of the control curve corresponding to the percent free ligand was subtracted from the receptor-containing curve.

The target of assay [11] is B1. The assay can be described thus: soluble receptor in detergent, spectrofluorimetry. As to the method: as §1
The target in assay [12] is T1, N-terminal hexahistidine-tagged FPR. As to the kind of experiment: soluble receptor in detergent, spectrofluorimetry. As to the method:
as §1

Assay [13] deals with T2, C-terminal hexahistidine-tagged FPR. The assay can be described thus: soluble receptor in detergent, spectrofluorimetry. As to the method: as §1
Assay [14] deals with B1. As to the kind of experiment: spectrofluorimetry, soluble FPR in dodecyl maltoside, free ligand quenched by anti-FITC antibody. The source says: For accurate analysis, and for kinetic dissociation analysis, the percent of the control curve corresponding to the percent free ligand was subtracted from the receptor-containing curve.
The free ligand and bound ligand were discriminated using an antibody to fluorescein that rapidly quenched only the free ligand.

Assay [15] deals with B3. The assay can be described thus: Kd from competition on soluble FPR divided by EC50 of LRG assembly with FPR-GFP. An excerpt:
(§2) Comparison of LR and LRG Affinities for a Family of Non-fluorescent Ligands.

In assay [16] the target is B1. The assay can be described thus: spectrofluorimetric competition with L^F for soluble FPR; IC50 converted to Kd. As to the method: as §1, §2
In assay [17] the target is B3. The assay can be described thus: flow cytometry, LRG assembly on DCNi G beads with 30 nM FPR-GFP. As to the method: Standard LRG Assembly Assay. […] Each mixture was mixed by pipetting to ensure a uniform starting suspension of the beads in 96 V-well plates (Costar), and then mixed at low speed on a vortex mixer at 7° for two hours. The 10 μl assays were individually brought to 200 μl with 0.1% dodecyl maltoside in buffer A in 12×75 mm tubes for flow cytometric measurement of fluorescence of the beads. LRG assembly was defined as the difference between fluorescence without GTPγS and that with GTPγS. All determinations were done in duplicate.

What is called Kd is a measure of binding affinity in units of concentration. Lower therefore signals a tighter complex. The EC50 is the concentration that produces a half-maximal response. Low readings indicate a more potent agent, high ones a less potent agent.

No end group written: not given here. *: point of attachment. For = O=C*

Sequence of G protein heterotrimer αi3β1H6γ2 on DCNi beads (chain, as listed by the source, chain 1 of 3): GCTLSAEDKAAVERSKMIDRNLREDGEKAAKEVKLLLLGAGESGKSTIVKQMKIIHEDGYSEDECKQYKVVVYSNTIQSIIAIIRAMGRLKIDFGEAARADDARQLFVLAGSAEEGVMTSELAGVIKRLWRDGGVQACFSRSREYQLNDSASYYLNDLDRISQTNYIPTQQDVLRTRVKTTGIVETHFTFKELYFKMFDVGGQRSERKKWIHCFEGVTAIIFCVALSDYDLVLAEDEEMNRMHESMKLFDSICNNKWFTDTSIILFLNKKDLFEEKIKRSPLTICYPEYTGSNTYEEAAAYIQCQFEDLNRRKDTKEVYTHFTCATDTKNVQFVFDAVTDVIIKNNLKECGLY
Sequence of G protein heterotrimer αi3β1H6γ2 on DCNi beads (chain, as listed by the source, chain 2 of 3): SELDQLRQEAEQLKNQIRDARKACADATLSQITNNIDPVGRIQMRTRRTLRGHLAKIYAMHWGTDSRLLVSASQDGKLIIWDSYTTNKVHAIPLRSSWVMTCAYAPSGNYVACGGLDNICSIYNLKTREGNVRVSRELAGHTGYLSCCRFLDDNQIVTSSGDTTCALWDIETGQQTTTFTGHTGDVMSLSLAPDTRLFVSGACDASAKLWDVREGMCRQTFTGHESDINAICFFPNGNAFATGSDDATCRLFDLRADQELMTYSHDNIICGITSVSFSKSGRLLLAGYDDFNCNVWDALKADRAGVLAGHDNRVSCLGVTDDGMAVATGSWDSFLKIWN
Sequence of G protein heterotrimer αi3β1H6γ2 on DCNi beads (chain, as listed by the source, chain 3 of 3): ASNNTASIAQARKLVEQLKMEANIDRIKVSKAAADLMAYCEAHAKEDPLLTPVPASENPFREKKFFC
T3 sequence (P08753 2-354, chain 1 of 3): as the sequence (chain, as listed by the source, chain 1 of 3) above
T3 sequence (P29387 2-340, chain 2 of 3, further chain): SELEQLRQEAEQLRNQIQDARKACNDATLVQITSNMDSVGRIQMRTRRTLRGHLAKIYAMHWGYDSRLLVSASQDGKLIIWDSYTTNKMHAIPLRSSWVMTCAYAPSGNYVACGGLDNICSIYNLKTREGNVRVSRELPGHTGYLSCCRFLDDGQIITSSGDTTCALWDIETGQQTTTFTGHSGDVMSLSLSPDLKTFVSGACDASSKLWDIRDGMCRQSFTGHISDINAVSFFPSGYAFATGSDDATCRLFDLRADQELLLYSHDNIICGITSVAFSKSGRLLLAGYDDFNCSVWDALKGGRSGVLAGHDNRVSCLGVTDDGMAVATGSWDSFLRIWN
T3 sequence (P63212 2-68, chain 3 of 3, further chain): as the sequence (chain, as listed by the source, chain 3 of 3) above
Sequence of β1H6γ2 dimer on DCNi beads (chain, as listed by the source, chain 1 of 2): as the sequence (chain, as listed by the source, chain 2 of 3) above
Sequence of β1H6γ2 dimer on DCNi beads (chain, as listed by the source, chain 2 of 2): as the sequence (chain, as listed by the source, chain 3 of 3) above

As for B1, the signal to background in assay [1] was no more than 4 ratio. Further, the “ratio of total signal to nonspecific signal” value (in assay [2]; with Gαi3β4γ2H6-FLAG) was 3 ratio each time.

Take B2: in [3], the “total fluorescence to background ratio” value turned out to be 2.7 ratio.

As to B3, in assay [4], the “total binding to background ratio” value came out at 4.9 ratio.

For B4, the “t1/2 (dissociation halftime)” value amounted to 15 s in [5], 14 s in assay [6], 14 s in assay [7] and 14 s in assay [10]. The Kd in assay [8] amounted to 8 nM; in [9], 4 nM; in assay [11], 5 nM; in assay [12] it was 7 nM; in [13], 10 nM; in assay [14], 4.8 nM.

As to For-MLFF [fMLFF], in the assay with FPR-GFP fusion protein [15], the “ratio of Kd (for LR) to EC50 (for LRG formation)” value worked out at 2.8 ratio. The dissociation constant (Kd) in assay [16] worked out at 75 nM. It took 27 nM to reach a half-maximal effect with FPR-GFP fusion protein [17] (EC50).
